Entries after “also recorded” stand apart in the source; their conditions may differ.
Key:
[1] = molecular target: T1, Jurkat T cells expressing mPD1 (Mus musculus, UniProt Q02242); test: Inhibition of anti-mouse PD1 mAb binding to mPD1-positive Jurkat T cells; assay type: cell-based; settings: mAb pre-incubated with different concentrations of JT-mPD1
T1 construct: expressed in transfected cells; host or cells: Jurkat E6.1 NF-kB::eGFP reporter T cells (human)
T1 sequence (Q02242 25-288): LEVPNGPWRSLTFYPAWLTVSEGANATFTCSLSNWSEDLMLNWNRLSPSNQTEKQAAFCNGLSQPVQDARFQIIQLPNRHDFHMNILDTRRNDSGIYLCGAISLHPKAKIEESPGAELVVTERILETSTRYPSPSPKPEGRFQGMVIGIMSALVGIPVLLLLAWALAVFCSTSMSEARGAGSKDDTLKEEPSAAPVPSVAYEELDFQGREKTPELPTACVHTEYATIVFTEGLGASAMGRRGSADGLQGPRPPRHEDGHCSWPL
Method: To produced T cells expressing mouse PD-1, Jurkat E6.1 NF-κB::eGFP reporter T cell line and the K562 stimulator cell line were cultured as previously described (Battin et al. PLoS One, 2017, 12(5):e0178220; PMID: 28542462). JE6.1 NF-kB::eGFP reporter cells expressing mouse PD-1 have been previously described (Jutz et al. Oncotarget, 2017, 8(39):64892-64906; PMID: 29029399). T cell stimulator cells, based on the K562 cell line (K562S), were generated by retrovirally transducing a CD5L-OKT3scFv-CD14 construct encoding an anti-human CD3 single chain fragment fused to human CD14 (Leitner et al. J. Immunol. Methods, 2010, 362(1-2):131-141; PMID: 20858499). K562S stimulate human T cells and T cell lines by ligating their TCR-CD3 complex. In order to separate stimulator cells from reporter cells, K562S were engineered to constitutively express a red fluorescent protein (RFP). […] To confirm cell surface expression of respective molecules, a PE-conjugated anti-mPD-1 antibody (29F.1A12) from Biolegend (San Diego, CA) was used. Membrane-bound anti-CD3 fragment on K562S cells was detected with a PE-conjugated goat-anti-mouse IgG (H+L) antibody (Jackson ImmunoResearch, West Grove, PA). […] Data was analysed using FlowJo software (version 10.0.8., Tree Star, Ashland, OR) and Graphpad Prism (version 5, GraphPad Software, Inc., La Jolla, CA). […]

[2] = test system: rat anti-mouse PD1 monoclonal antibody (mAb) (Biolegend, clone 29F.1A12); test: Colony blot assay of E. coli clones expressing GST-fused overlapping mPD1 peptides; assay type: binding; settings: GST-fused 15-mer
Text: The protein sequence corresponding to the extracellular domain of mouse PD-1 (Q02242; Uniprot) was electronically back-translated into DNA sequences (ATG:Biosynthetics GmbH; Merzhausen, Germany). The protein-coding DNA sequences were partitioned into uniformly sized peptide-CDS as overlapping peptides in 15 amino acids (aa) length, with an offset of 3 aa, and the resulted DNA sequences were inserted into the expression vector pEPX-1 (ATG:Biosynthetics GmbH; Merzhausen, Germany). […] Expression vectors were used for transformation of E. coli strain BL21. Colonies (clones) of E. coli harbouring the expression vectors were picked from plates supplemented with Kanamycin and used for screening by colony blot assay. A colony harbouring the expression vector with no insert (i.e. control) was also picked.
The clones of interest were replicated onto nitrocellulose membranes and lysed with lysis solution (Tris-HCl pH 8.0 50 mM, Lysozyme 200 μg/ml), followed by three cycles of freezing at −80C and thawing at 37C. After the last step of thawing, the membranes were incubated with the blocking solution containing PBS-5% skim milk. The blocking solution was discarded and the membranes were incubated for 2 h at RT with rat anti-mouse PD1 monoclonal antibody (mAb) (Biolegend, clone 29F.1A12). […]

Sequence: ISLHPKAKIEESPGA (listed as Mus musculus) [JT-mPD1, amino acid residues 126-140 of mouse PD1 (Uniprot Q02242)]
- inhibition of binding of anti-mouse PD1 mAb to mPD1-positive Jurkat T cells [1]: dose-dependently inhibited; also recorded: inhibited dose-dependently
- reactivity to the rat anti-mouse PD1 monoclonal antibody [2]: reactive
